Tested on: CC(=O)N[C@H]1[C@@H]2OC[C@@H](O2)[C@@H](O)[C@@H]1O[C@H](C)C(=O)N[C@@H](C)C(=O)N[C@H](CCC(=O)N[C@@H](CCC[C@@H](N)C(=O)O)C(=O)O)C(=O)O
Experiment: LC/MS of substrate consumption or product formation, nonlinear regression
Format: biochemical, Citrobacter freundii
Details: pH 7.0, hydrolysis at lactyl amide bond

AmpD (Citrobacter freundii)
Km: 360 ± 10 µM
kcat: 25 ± 2 s⁻¹
kcat/Km: 69000 ± 4000 M⁻¹ s⁻¹

Reference: article PMC2845155
